In publication doi:10.1101/2024.07.24.604550 (bioRxiv, 2024):

T1: GST-ECT1 (Arabidopsis thaliana (Col-0), UniProt Q3MK94 1-428)
T1 sequence: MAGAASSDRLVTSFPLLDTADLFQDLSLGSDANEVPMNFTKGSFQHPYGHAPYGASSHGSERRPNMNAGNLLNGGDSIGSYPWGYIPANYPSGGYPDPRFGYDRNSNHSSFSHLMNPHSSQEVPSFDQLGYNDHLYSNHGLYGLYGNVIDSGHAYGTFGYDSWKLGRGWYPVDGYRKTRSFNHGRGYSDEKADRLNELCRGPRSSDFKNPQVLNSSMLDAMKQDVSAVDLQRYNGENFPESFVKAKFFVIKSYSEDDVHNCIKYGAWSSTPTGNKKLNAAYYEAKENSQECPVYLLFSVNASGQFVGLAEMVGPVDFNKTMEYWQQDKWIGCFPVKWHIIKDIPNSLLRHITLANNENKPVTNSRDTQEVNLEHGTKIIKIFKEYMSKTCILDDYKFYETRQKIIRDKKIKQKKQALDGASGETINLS

T2: GST-ECT1 (Arabidopsis, UniProt Q3MK94 1-428)
T2 sequence (looked up): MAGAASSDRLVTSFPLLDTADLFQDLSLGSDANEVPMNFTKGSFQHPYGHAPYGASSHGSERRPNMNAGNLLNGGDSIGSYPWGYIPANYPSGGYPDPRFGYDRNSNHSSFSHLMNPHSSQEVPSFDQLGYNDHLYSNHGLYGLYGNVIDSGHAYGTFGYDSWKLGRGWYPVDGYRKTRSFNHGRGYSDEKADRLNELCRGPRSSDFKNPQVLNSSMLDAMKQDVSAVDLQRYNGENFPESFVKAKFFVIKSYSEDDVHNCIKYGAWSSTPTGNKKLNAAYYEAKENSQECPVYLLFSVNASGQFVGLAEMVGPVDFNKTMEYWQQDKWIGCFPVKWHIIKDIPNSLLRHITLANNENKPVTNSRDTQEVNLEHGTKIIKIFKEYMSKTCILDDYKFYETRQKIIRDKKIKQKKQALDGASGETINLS


What was measured:
[1] = target: T1, GST-ECT1; experiment: EMSA
[2] = target: T2, GST-ECT1; experiment: pull-down

Row | binding result [2] | Binder | binding result [1]
1 | – | UCUUUUGUAAGACUUGUACUCUUUA (ssRNA, m6A at position 9) [UGUm6AA RNA] | binds
2 | – | UCUUUUGUAAGACUUGUACUCUUUA (ssRNA) [UGUAA RNA (unmodified)] | no binding
3 | binds | MBP-ECT1 (natural protein, Arabidopsis, UniProt Q3MK94 1-428, looked up) MAGAASSDRLVTSFPLLDTADLFQDLSLGSDANEVPMNFTKGSFQHPYGHAPYGASSHGSERRPNMNAGNLLNGGDSIGSYPWGYIPANYPSGGYPDPRFGYDRNSNHSSFSHLMNPHSSQEVPSFDQLGYNDHLYSNHGLYGLYGNVIDSGHAYGTFGYDSWKLGRGWYPVDGYRKTRSFNHGRGYSDEKADRLNELCRGPRSSDFKNPQVLNSSMLDAMKQDVSAVDLQRYNGENFPESFVKAKFFVIKSYSEDDVHNCIKYGAWSSTPTGNKKLNAAYYEAKENSQECPVYLLFSVNASGQFVGLAEMVGPVDFNKTMEYWQQDKWIGCFPVKWHIIKDIPNSLLRHITLANNENKPVTNSRDTQEVNLEHGTKIIKIFKEYMSKTCILDDYKFYETRQKIIRDKKIKQKKQALDGASGETINLS | –
